Experiment [1] deals with T1, MutSα (MSH2/MSH6 heterodimer) (human, UniProt P43246 1-934; P52701 1-1360). Kind of experiment: pull-down.
The target in experiment [2] is T2, MutSβ (MSH2/MSH3 heterodimer) (human, UniProt P43246 1-934; P20585 1-1137). Kind of experiment: pull-down.
Experiment [3] concerns the target T3, MutLα (MLH1/PMS2 heterodimer) (human, UniProt P40692 1-756; P54278 1-862). Kind of experiment: pull-down.
Experiment [4] has as its target T1, MutSα (MSH2/MSH6 heterodimer). The experiment can be described thus: ELISA.
Experiment [5] concerns the target T2, MutSβ (MSH2/MSH3 heterodimer). The experiment can be described thus: ELISA.
The target of experiment [6] is T3, MutLα (MLH1/PMS2 heterodimer). The experiment can be described thus: ELISA. (In general: ELISA stands for enzyme-linked immunosorbent assay.)

The results in this text go back to PMC2034464 (Nucleic Acids Research, 2007).

Usually Kd stands for the concentration at which binding is half-saturated. A higher Kd goes with weaker binding.

T2 sequence (P43246 whole entry, chain 1 of 2): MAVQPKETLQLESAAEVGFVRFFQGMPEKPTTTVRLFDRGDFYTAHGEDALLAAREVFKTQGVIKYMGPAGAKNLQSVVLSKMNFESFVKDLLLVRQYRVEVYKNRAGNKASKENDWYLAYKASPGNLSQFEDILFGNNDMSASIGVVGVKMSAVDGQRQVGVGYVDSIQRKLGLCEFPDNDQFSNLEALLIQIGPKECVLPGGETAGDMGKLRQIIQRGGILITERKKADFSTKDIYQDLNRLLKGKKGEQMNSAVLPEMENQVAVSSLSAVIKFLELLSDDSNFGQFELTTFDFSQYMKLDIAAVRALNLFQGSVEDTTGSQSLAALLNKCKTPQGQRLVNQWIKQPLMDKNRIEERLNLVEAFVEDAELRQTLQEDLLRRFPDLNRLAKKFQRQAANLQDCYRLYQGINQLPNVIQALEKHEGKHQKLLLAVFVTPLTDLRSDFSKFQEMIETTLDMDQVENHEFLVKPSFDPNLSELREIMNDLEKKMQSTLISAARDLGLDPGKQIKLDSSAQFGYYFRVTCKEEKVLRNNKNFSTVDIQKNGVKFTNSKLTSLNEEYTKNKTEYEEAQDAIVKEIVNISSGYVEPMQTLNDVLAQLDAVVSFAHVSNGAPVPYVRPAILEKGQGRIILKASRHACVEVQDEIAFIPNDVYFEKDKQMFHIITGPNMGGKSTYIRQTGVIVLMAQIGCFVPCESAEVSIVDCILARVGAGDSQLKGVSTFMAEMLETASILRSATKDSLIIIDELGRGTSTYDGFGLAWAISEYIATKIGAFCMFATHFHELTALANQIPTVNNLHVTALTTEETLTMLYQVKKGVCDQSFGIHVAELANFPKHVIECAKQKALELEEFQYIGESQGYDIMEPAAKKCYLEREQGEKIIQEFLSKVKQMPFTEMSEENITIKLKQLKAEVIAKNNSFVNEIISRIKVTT
T2 sequence (P20585 whole entry, chain 2 of 2): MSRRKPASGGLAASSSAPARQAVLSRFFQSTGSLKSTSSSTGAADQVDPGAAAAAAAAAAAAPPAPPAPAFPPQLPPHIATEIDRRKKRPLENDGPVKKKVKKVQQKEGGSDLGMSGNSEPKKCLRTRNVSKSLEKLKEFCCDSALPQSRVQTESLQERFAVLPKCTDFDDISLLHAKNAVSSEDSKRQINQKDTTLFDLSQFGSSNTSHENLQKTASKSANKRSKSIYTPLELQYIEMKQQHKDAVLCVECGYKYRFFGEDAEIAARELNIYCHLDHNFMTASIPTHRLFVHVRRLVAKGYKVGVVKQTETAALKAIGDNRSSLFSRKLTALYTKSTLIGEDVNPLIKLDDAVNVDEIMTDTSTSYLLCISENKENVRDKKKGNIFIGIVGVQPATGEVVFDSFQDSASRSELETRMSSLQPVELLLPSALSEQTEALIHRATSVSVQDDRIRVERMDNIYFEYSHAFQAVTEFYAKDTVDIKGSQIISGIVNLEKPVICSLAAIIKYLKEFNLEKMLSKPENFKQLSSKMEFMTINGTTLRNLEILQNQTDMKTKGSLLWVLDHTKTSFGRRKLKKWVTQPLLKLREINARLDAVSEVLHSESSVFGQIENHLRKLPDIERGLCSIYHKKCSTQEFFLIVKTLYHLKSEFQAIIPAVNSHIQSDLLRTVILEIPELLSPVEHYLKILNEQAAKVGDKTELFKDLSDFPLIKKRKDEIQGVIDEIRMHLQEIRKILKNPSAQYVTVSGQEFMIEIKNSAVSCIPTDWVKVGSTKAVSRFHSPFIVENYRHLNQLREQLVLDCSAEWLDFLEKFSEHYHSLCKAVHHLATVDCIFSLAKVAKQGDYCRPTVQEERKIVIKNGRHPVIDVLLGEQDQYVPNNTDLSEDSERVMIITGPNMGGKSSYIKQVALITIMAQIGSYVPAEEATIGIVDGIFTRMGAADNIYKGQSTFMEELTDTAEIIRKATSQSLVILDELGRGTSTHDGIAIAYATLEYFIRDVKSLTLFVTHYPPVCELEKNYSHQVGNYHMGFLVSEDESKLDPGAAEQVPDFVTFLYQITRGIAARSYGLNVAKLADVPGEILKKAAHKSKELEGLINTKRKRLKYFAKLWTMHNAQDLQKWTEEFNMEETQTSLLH
T3 sequence (P40692 whole entry, chain 1 of 2): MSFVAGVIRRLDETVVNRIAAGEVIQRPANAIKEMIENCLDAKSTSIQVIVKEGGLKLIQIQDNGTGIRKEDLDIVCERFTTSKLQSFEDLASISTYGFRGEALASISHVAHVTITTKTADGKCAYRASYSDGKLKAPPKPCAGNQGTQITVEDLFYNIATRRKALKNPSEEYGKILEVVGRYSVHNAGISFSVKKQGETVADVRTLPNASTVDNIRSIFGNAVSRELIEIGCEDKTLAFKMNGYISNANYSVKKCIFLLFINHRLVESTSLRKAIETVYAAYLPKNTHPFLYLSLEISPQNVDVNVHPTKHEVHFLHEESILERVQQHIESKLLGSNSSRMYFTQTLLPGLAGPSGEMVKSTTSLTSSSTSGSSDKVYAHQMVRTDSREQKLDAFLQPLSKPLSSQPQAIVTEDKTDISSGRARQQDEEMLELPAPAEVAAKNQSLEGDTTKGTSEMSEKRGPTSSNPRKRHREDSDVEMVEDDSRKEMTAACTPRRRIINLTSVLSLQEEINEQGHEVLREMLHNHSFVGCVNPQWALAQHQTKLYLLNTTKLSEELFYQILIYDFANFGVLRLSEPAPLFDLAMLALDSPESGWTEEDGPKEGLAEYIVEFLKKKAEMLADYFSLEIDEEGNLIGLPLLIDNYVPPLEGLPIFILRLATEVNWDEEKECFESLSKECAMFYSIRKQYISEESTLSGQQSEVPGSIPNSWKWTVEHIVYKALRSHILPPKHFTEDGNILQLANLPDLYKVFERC
T3 sequence (P54278 whole entry, chain 2 of 2): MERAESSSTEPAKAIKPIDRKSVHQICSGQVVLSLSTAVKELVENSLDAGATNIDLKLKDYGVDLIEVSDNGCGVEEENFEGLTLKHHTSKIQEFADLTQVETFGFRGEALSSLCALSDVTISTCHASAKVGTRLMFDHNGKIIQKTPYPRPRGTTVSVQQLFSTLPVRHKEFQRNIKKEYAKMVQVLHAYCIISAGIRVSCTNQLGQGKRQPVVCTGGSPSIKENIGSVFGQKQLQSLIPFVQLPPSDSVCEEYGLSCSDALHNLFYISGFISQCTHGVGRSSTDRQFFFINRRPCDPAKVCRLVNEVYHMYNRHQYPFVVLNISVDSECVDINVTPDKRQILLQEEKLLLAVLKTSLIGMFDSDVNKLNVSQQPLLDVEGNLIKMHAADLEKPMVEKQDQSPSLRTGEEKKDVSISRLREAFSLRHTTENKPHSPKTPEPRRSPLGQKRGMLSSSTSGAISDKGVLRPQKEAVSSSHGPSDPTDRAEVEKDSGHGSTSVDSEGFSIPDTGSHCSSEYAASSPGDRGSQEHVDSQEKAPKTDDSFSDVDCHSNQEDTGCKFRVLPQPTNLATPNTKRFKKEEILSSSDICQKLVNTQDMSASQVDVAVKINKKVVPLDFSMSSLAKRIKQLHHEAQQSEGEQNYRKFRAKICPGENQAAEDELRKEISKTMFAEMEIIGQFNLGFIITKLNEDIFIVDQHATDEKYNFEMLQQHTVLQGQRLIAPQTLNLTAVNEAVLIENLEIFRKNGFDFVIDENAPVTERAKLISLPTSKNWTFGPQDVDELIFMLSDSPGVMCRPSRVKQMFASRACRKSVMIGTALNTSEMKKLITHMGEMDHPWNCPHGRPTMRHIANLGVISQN

B1: GST-WRN fragment 500–946 (domain or fragment)
chain: not shown
Consider B1, for which the binding result in experiment [1], in experiment [2] and in experiment [3] was “binds” throughout.

B2: GST-WRN fragment 51–449 (domain or fragment, human, UniProt Q14191 51-449, looked up)
chain: GSIVYSYDASDCSFLSEDISMSLSDGDVVGFDMEWPPLYNRGKLGKVALIQLCVSESKCYLFHVSSMSVFPQGLKMLLENKAVKKAGVGIEGDQWKLLRDFDIKLKNFVELTDVANKKLKCTETWSLNSLVKHLLGKQLLKDKSIRCSNWSKFPLTEDQKLYAATDAYAGFIIYRNLEILDDTVQRFAINKEEEILLSDMNKQLTSISEEVMDLAKHLPHAFSKLENPRRVSILLKDISENLYSLRRMIIGSTNIETELRPSNNLNLLSFEDSTTGGVQQKQIREHEVLIHVEDETWDPTLDHLAKHDGEDVLGNKVERKEDGFEDGVEDNKLKENMERACLMSLDITEHELQILEQQSQEEYLSDIAYKSTEHLSPNDNENDTSYVIESDEDLEMEML
Consider B2, for which the binding result in experiment [3] is reported as “binds”.

B3: GST-WRN fragment 500–1149 (domain or fragment)
chain: not shown
As for B3, the binding result in experiment [2] is recorded as “binds”.

B4: Recombinant human WRN (Werner syndrome helicase) (natural protein)
chain: not shown
With B4, the values for the Kd in experiment [4], in experiment [5] and in experiment [6] were 38.5 nM, 8.8 nM and 34.9 nM, respectively.

B5: GST-WRN fragment 949–1432 (domain or fragment, human, UniProt Q14191 949-1432, looked up)
chain: MDDSEDTSWDFGPQAFKLLSAVDILGEKFGIGLPILFLRGSNSQRLADQYRRHSLFGTGKDQTESWWKAFSRQLITEGFLVEVSRYNKFMKICALTKKGRNWLHKANTESQSLILQANEELCPKKLLLPSSKTVSSGTKEHCYNQVPVELSTEKKSNLEKLYSYKPCDKISSGSNISKKSIMVQSPEKAYSSSQPVISAQEQETQIVLYGKLVEARQKHANKMDVPPAILATNKILVDMAKMRPTTVENVKRIDGVSEGKAAMLAPLLEVIKHFCQTNSVQTDLFSSTKPQEEQKTSLVAKNKICTLSQSMAITYSLFQEKKMPLKSIAESRILPLMTIGMHLSQAVKAGCPLDLERAGLTPEVQKIIADVIRNPPVNSDMSKISLIRMLVPENIDTYLIHMAIEILKHGPDSGLQPSCDVNKRRCFPGSEEICSSSKRSKEEVGINTETSSAERKRRLPVWFAKGSDTSKKLMDKTKRGGLFS
As for B5, the binding result in experiment [2] is “binds”.
